Laboratory results from publication PMC7568657, “SppI Forms a Membrane Protein Complex with SppA and Inhibits Its Protease Activity in Bacillus subtilis” (mSphere, 2020).
Where a chain is given by its changes, count along the chain named. Names and notes keep the numbering of the source. Values joined by “and” are separate entries in the source; they are usually repeats but may differ in a detail not shown here. Equal entries are not always repeated.

B1: SppI-FLAG (natural protein, B. subtilis, UniProt O34424 1-164, looked up)
chain: MDATYEELERNDIKGPQEAELLTHAYAGFWVRFWAFLLDWLVIWGLNHLLVSPLFTVLDLPKTSGMFTFSAYSVTTLIVYLAYFALMTKYFRQTLGKMVFGLKVVSVKQDSKLTWSTVIFREVVGRYIDKIWILYIVVAFSPTKQGIHDYIADTTVVHEKLYRK
notes: SppI (formerly YteJ), membrane protein of Bacillus subtilis; not shown: FLAG, C-terminal, kept
B2: 6×His-SppI (natural protein, B. subtilis, UniProt O34424 1-164, looked up)
chain: B1 chain
notes: SppI (formerly YteJ), membrane protein of Bacillus subtilis, amplified from BSB1 chromosomal DNA; source: E. coli ER2566, purified from the membrane fraction (1% DDM, Ni-NTA, gel filtration); not shown: 6×His, N-terminal, kept
B3: 6×His-SppA (enzyme, B. subtilis, UniProt O34525 1-335, looked up)
chain: MNAKRWIALVIALGIFGVSIIVSISMSFFESVKGAQTDLTSLTDESQEKTLENGSPSSKIAVLEVSGTIQDNGDSSSLLGADGYNHRTFLKNLERAKDDKTVKGIVLKVNSPGGGVYESAEIHKKLEEIKKETKKPIYVSMGSMAASGGYYISTAADKIFATPETLTGSLGVIMESVNYSKLADKLGISFETIKSGAHKDIMSPSREMTKEEKNIMQSMVDNSYEGFVDVISKGRGMPKAEVKKIADGRVYDGRQAKKLNLVDELGFYDDTITAMKKDHKDLKNASVISYEESFGLGSLFSMGANKMFKSEIDFLNMREILSQSGSPRMMYLYAK
notes: SppA, membrane protease of Bacillus subtilis, amplified from BSB1 chromosomal DNA; Purified alone it gave at least three bands of 32 to 34 kDa (C-terminal domain partly self-cleaved); purified with SppI the major band was about 36 kDa and still held most of the C terminus; source: E. coli ER2566, purified from the cytoplasmic membrane fraction (1% DDM, Ni-NTA, gel filtration); not shown: 6×His, …
B4: 6×His-SppA^K199A (enzyme, B. subtilis, UniProt O34525 1-335, looked up)
chain: B3 chain with K199A
notes: SppA, membrane protease of Bacillus subtilis, with the active-site mutation K199A; band of about 36 kDa; not shown: 6×His, N-terminal, kept

Columns and labels:
SppI-SPA (B. subtilis) = SppI-SPA (B. subtilis) (UniProt O34424); assay: affinity purification with mass spectrometry; tandem affinity purification of SppI-SPA (calmodulin resin, then anti-FLAG resin) from B. subtilis membranes in 10 mM Tris-Cl pH 7.5, 150 mM NaCl, 1% DDM, 4°C; LC-MS/MS; two independent experiments
[1] = molecular target: the molecule itself; assay: SEC; gel filtration of affinity-purified proteins on Superdex 200 GL 10/300; apparent sizes against MW markers

Row | Molecule | stoichiometry N (SppA per SppI (by the PAI values)) (SppI-SPA (B. subtilis)) | stoichiometry N [1]
1 | SppA (from UniProt O34525 1-335) (enzyme) | 1 and 2 | –
2 | B1 | – | 8
3 | B2 | – | 8
4 | B3 | – | 8
5 | B4 | – | 8
